# Test results: IntAct's records for PubMed 34075876
# B1: Protein TOPLESS (Arabidopsis thaliana (Mouse-ear cress)), Q94AI7 (parent)
# chain: MSSLSRELVFLILQFLDEEKFKETVHKLEQESGFFFNMKYFEDEVHNGNWDEVEKYLSGFTKVDDNRYSMKIFFEIRKQKYLEALDKHDRPKAVDILVKDLKVFSTFNEELFKEITQLLTLENFRENEQLSKYGDTKSARAIMLVELKKLIEANPLFRDKLQFPTLRNSRLRTLINQSLNWQHQLCKNPRPNPDIKTLFVDHSCGPPNGARAPSPVNNPLLGGIPKAGGFPPLGAHGPFQPTASPVPTPLAGWMSSPSSVPHPAVSAGAIALGGPSIPAALKHPRTPPTNASLDYPSADSEHVSKRTRPMGISDEVNLGVNMLPMSFSGQAHGHSPAFKAPDDLPKTVARTLSQGSSPMSMDFHPIKQTLLLVGTNVGDIGLWEVGSRERLVQKTFKVWDLSKCSMPLQAALVKEPVVSVNRVIWSPDGSLFGVAYSRHIVQLYSYHGGEDMRQHLEIDAHVGGVNDISFSTPNKQLCVITCGDDKTIKVWDAATGVKRHTFEGHEAPVYSVCPHYKENIQFIFSTALDGKIKAWLYDNMGSRVDYDAPGRWCTTMAYSADGTRLFSCGTSKDGESFIVEWNESEGAVKRTYQGFHKRSLGVVQFDTTKNRYLAAGDDFSIKFWDMDAVQLLTAIDGDGGLQASPRIRFNKEGSLLAVSGNENVIKIMANSDGLRLLHTFENISSESSKPAINSIAAAAAAAATSAGHADRSANVVSIQGMNGDSRNMVDVKPVITEESNDKSKIWKLTEVSEPSQCRSLRLPENLRVAKISRLIFTNSGNAILALASNAIHLLWKWQRNERNATGKATASLPPQQWQPASGILMTNDVAETNPEEAVPCFALSKNDSYVMSASGGKISLFNMMTFKTMATFMPPPPAATFLAFHPQDNNIIAIGMDDSTIQIYNVRVDEVKSKLKGHSKRITGLAFSNVLNVLVSSGADAQLCVWNTDGWEKQRSKVLPLPQGRPNSAPSDTRVQFHQDQAHFLVVHETQLAIYETTKLECMKQWAVRESLAPITHATFSCDSQLVYASFMDATVCVFSSANLRLRCRVNPSAYLPASLSNSNVHPLVIAAHPQEPNMFAVGLSDGGVHIFEPLESEGKWGVAPPAENGSASGAPTAPSVGASASDQPQR
# partner: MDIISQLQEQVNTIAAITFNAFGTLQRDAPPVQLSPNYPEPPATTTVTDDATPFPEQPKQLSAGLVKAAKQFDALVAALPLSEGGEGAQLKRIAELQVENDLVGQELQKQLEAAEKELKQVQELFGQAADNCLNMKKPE
# B2: Protein TOPLESS (Arabidopsis thaliana (Mouse-ear cress)), Q94AI7 (parent)
# chain: B1 chain
# partner: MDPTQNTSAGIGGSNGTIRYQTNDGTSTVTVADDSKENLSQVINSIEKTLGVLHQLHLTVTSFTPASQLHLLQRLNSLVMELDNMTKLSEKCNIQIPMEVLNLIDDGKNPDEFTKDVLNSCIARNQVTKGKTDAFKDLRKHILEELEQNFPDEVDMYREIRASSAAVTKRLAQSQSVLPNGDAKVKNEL
# Variants of: B1
# Details: with med21_arath MED21, C0LU16
row,Variant,effect of a mutation on the interaction
1,E146A,decreasing interaction strength
2,K149A,decreasing interaction strength
3,K148A,decreasing interaction strength
4,V145A,decreasing interaction strength

# Variants of: B1
# Details: with med21_arath MED21, C0LU16
# Remark: another data set of the same source
row,Variant,effect of a mutation on the interaction
1,V145A;E146A;K148A;K149A,disrupting interaction strength

# Variants of: B2
# Details: with md10b_arath MED10B
row,Variant,effect of a mutation on the interaction
1,V145A;E146A;K148A;K149A,decreasing interaction strength
